The values that follow come from article PMC8307404, “Crystal Structure-Guided Design of Bisubstrate Inhibitors and Photoluminescent Probes for Protein Kinases of the PIM Family” (Molecules, 2021).

Each structure is given as a SMILES string. Square brackets hold non-standard residues; d marks the D form. Peptide text beside a SMILES is read from it. * marks the point of attachment. X3 = O=C(CCCCCNCc1nc2c(sc3cc(Br)cnc32)c(=O)[nH]1)*

Assay in all cases: Kinase profiling (radiometric filter-binding)
Assay type in all cases: biochemical

One series has as its target T1, PDK1 (Homo sapiens, UniProt O15530).
T1 sequence (O15530 1-556): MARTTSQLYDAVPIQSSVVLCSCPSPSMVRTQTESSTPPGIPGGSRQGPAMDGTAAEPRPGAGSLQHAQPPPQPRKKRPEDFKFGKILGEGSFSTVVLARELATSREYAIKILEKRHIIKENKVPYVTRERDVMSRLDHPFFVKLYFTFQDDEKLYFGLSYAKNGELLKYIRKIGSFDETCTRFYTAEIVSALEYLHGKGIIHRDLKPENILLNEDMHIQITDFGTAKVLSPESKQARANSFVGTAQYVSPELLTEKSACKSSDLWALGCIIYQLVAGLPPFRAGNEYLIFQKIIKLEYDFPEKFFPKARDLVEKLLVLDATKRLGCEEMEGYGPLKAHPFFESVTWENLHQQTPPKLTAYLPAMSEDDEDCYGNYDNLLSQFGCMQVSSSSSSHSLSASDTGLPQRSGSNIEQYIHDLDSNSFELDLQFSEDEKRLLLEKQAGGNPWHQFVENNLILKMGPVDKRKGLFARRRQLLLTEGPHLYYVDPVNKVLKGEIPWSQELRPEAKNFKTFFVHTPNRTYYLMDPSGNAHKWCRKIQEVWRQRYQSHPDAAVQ
Conditions: PDK1, 1 µM inhibitor; read-out: Residual activity, %. The method in brief:
(§1)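 Single-point selectivity screen at 1 µM total inhibitor concentration across a panel of 139 or 140 human PKs, using radioactive filter-binding detection with ATP near or below KM; data are % activity remaining versus untreated control.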

The target of a further series is CAMKKb (Homo sapiens, UniProt Q96RR4). Conditions: 1 µM inhibitor, read-out: Residual activity, %. In outline:
as §1

For another series, the target named is T2, EPH-B4 (Homo sapiens, UniProt P54760).
T2 sequence (P54760 16-987): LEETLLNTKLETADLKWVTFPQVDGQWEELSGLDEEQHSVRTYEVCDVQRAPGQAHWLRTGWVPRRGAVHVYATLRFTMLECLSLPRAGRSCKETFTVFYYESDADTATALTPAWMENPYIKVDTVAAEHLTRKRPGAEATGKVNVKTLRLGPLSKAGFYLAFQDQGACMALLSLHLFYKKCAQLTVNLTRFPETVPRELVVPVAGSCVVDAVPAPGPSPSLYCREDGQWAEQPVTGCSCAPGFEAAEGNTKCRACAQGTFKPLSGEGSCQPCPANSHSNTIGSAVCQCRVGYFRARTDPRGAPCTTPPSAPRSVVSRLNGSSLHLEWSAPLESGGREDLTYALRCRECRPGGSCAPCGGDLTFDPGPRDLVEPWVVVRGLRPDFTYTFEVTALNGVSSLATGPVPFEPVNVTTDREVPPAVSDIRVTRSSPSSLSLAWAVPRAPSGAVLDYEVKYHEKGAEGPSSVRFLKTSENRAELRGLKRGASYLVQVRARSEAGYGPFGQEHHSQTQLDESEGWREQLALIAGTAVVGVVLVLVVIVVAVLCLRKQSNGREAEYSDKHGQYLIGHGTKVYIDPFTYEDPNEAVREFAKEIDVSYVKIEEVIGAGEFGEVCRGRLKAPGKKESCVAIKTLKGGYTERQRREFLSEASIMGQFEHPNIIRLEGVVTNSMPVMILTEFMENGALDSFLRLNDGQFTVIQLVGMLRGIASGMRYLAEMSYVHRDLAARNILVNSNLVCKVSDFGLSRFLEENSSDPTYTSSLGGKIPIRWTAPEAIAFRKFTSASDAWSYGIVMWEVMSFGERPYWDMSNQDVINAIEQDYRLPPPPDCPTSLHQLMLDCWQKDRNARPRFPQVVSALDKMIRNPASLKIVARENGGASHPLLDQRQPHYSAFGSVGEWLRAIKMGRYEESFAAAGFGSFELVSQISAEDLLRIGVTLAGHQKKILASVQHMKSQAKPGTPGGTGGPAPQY
Conditions: EPH-B4, 1 µM inhibitor; read-out: Residual activity, %. The method in brief: as §1

The next series addresses T3, ERK8 (Homo sapiens, UniProt Q8TD08).
T3 sequence (Q8TD08 1-544): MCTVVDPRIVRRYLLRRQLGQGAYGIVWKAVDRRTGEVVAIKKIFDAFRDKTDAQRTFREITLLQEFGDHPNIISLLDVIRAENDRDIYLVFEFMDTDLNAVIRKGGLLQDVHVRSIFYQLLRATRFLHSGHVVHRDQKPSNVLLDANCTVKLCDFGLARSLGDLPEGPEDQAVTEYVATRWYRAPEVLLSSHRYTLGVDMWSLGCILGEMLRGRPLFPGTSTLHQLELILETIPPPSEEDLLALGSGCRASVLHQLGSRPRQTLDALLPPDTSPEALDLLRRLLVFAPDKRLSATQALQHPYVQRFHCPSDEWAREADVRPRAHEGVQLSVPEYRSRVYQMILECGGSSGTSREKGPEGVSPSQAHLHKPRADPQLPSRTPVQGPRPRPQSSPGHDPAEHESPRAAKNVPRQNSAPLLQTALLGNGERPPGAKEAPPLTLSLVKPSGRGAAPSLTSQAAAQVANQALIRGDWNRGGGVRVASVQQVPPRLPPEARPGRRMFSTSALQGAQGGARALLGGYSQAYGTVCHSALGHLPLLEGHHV
Particulars: ERK8, 1 µM inhibitor; read-out: Residual activity, %. The method in brief:
as §1

Sequence of CAMKKb (Q96RR4 whole entry): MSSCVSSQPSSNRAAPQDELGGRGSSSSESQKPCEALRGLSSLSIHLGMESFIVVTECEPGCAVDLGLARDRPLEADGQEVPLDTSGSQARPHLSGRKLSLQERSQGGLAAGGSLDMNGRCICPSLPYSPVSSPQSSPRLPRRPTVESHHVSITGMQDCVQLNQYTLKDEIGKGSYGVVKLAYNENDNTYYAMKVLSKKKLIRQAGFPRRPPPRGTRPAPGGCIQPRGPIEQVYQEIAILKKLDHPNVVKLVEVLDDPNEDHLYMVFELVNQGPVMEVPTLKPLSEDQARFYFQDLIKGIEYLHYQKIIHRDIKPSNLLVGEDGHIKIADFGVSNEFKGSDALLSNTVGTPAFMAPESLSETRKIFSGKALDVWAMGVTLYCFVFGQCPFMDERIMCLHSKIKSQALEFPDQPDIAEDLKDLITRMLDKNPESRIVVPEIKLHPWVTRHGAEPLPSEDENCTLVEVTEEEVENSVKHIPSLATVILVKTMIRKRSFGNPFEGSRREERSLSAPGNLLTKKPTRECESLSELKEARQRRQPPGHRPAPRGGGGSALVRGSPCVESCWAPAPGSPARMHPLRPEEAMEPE

As for `N=C(N)NCCC[C@@H](NC(=O)CCCCCNC(=O)Cn1cnc2c(I)c(I)c(I)c(I)c21)C(=O)N[C@H](CCCNC(=N)N)C(=O)N[C@H](CCCNC(=N)N)C(=O)N[C@H](CCCNC(=N)N)C(=O)N[C@H](CCCNC(=N)N)C(=O)N[C@H](CCCNC(=N)N)C(=O)N[C@H](CCCCN)C(N)=O` [ARC-3125, TIBI-CH2-C(=O)-Ahx-(D-Arg)6-D-Lys-NH2], the remaining activity at 1 µM with PDK1 amounted to 123 ± 7%; with CAMKKb it was 47 ± 1%; in the series with EPH-B4 it was 119 ± 7%; with ERK8, 18 ± 9%.
As to `N=C(N)NCCC[C@@H](NC(=O)CCCCCNCc1nc2c(sc3cc(Br)cnc32)c(=O)[nH]1)C(=O)N[C@H](CCCNC(=N)N)C(=O)N[C@H](CCCNC(=N)N)C(=O)N[C@H](CCCNC(=N)N)C(=O)N[C@H](CCCNC(=N)N)C(=O)N[C@H](CCCNC(=N)N)C(=O)N[C@H](CCCCN)C(N)=O` [ARC-3126, BPTP-Ahx-(D-Arg)6-D-Lys-NH2] (X3-[dR][dR][dR][dR][dR][dR][dK]-NH2), the remaining activity at 1 µM in the series with PDK1 came to 111 ± 13%; with CAMKKb it was 104 ± 13%; with EPH-B4, 101 ± 10%; with ERK8, 49 ± 30%.
The corresponding values for `N=C(N)NCCC[C@@H](NC(=O)CNC(=O)[C@@H](CCCNC(=N)N)NC(=O)[C@@H](CCCNC(=N)N)NC(=O)CCCCCCCNCc1nc2c(sc3cc(Br)cnc32)c(=O)[nH]1)C(=O)N[C@H](CCCCN)C(N)=O` [Compound 1, BPTP-Aoc-(D-Arg)2-Gly-D-Arg-D-Lys-NH2] are 116 ± 3%, 117 ± 1%, 104 ± 2% and 109 ± 8%.
On the same counts, the results for `N=C(N)NCCC[C@@H](NC(=O)CNC(=O)[C@@H](CCCNC(=N)N)NC(=O)[C@@H](CCCNC(=N)N)NC(=O)CCCCCCCNCc1nc2c(sc3ccc(Br)cc32)c(=O)[nH]1)C(=O)N[C@H](CCCCN)C(N)=O` [Compound 2, BBTP-Aoc-(D-Arg)2-Gly-D-Arg-D-Lys-NH2] are 121 ± 7%, 108 ± 1%, 118 ± 11% and 78 ± 17%.
The corresponding values for `N=C(N)NCCC[C@@H](NC(=O)CNC(=O)[C@@H](CCCNC(=N)N)NC(=O)[C@@H](CCCNC(=N)N)NC(=O)Cn1cc(CNCc2nc3c(sc4ccc(Br)cc43)c(=O)[nH]2)nn1)C(=O)N[C@H](CCCCN)C(N)=O` [Compound 3, BBTP-Amt-(D-Arg)2-Gly-D-Arg-D-Lys-NH2] are 118 ± 16%, 85 ± 4%, 98 ± 13% and 83 ± 2%.
